# Measurements taken from publication PMC9107513.
# Tests used:
# [1] = western blot, endogenous RYR1, C2C12 myotubes ± MG-132; settings: glycan lost; control: vector / control siRNA
# [2] = IP of exogenous RYR1, phospho-Ser/Thr blot; settings: glycan lost; control: control siRNA
# [3] = IP of tagged RYR1, blot of tagged ubiquitin, MG-132; settings: glycan lost; control: vector / control siRNA
# [4] = western blot, exogenous wild-type RYR1 in C2C12; settings: glycan lost; control: vector / control siRNA
# [5] = MS of immunoprecipitated endogenous RYR1, C2C12; settings: glycan lost; control: control siRNA
substance,measurement,setting,value
RYR1: siRNA-mediated knockdown of OGT,expression_or_secretion,[1],increases
human RYR1: OGT knockdown,other: Ser/Thr phosphorylation,[2],increases
same,other: ubiquitination,[3],decreases
same,expression_or_secretion,[4],increases
RYR1: OGT knockdown,other: phosphorylation at T4338,[5],increases
